What was measured:
MKK6CAM [1] = assay: p38 phosphorylation by MKK6CAM in vitro; assay type: biochemical; settings: 150 nM fusion protein, 40 ng MKK6CAM
Protocol: (§1) The reactions were carried out at 30° C. for 30 minutes and the proteins were separated in 8% SDS-PAGE gels. The amount of p38 in each point was visualized by Coomassie Blue staining. Then the radioactivity in each p38 isoform was determined. […] FIG. 11B: In these same assays, the ability of MKK6CAM-activated GST-p38WT, GST-p38T123A and GST-p38T123D to phosphorylate 2 μg of GST-ATF2 is evaluated. The representative autoradiography (^32P) of the total GST-ATF2 control (Coomassie Blue) is attached.
As in the previous cases, the reactions were left to take place at 30° C. for 30 minutes and the proteins were resolved in 8% SDS-PAGE gels. With the purpose of assuring the inclusion of identical amounts of protein, they were visualized in the gel by Coomassie Blue staining. Subsequently, the radioactivity incorporated in each p38 isoform was determined.

GST-ATF2 = assay: phosphorylation of GST-ATF2 by MKK6CAM-activated p38; assay type: biochemical; settings: with MKK6CAM, 2 μg GST-ATF2
Protocol: as §1
(§2) The ATF2 and MEF2A forms bound to GST were used to test the catalytic activity of GST-p38. In most cases, 2 μg of GST-ATF2 or GST-MEF2A, of own production, were used. The phosphorylation conditions are the same as set forth in the foregoing cases. Nevertheless, in other occasions, relevantly pointed out in the Figures, 0.2 μg of substrate were used and the phosphorylation reaction was allowed to take pace for 15 minutes only.

GST-MEF2A = assay: phosphorylation of GST-MEF2A by p38; assay type: biochemical; settings: with MKK6CAM, 2 μg GST-MEF2A
Protocol: FIG. 12A: In vitro phosphorylations are carried out with the fusion proteins indicated in the Figure, in the presence (+) or absence (−) of recombinant MKK6CAM(40 ng) and 2 μg of GST-MEF2A. The assay was left to take place for 30 minutes. The proteins were separated in 8% SDS-PAGE, stained with CBB and the incorporated radioactivity (^32P) was detected. Panels of a representative experiment of the three assays carried out independently are provided. FIG. 12B: The baseline activity of the three p38 fusion proteins in the absence of the MKK6CAM activator was evaluated in the previously described conditions. A representative autoradiography after a long exposure is shown.
as §2

MKK6CAM [2] = assay: p38 activation by MKK6CAM in situ (anti-phospho-p38) in HEK293 cells; assay type: cell-based, human; settings: HEK293, 150 ng p38 plasmid, 50 ng pCDNA3-MKK6CAM
Protocol: In overexpression experiments analogous to those described previously, HEK293 cells, seeded in M6 and always in duplicate, were transfected with: 150 ng of pCDNA3-Flag-p38α WT, or pCDNA3-Flag-p38α T123D and 50 ng of pCDNA3-MKK6CAM, (or empty pCDNA3). p38 activation with the anti-phospho-p38 antibody was evaluated. For each of the two isoforms, the activation by MKK6CAM was in reference to the baseline situation, obtaining a certain activation level. 100% activation was established as the p38α WT activation in each experiment. Data (±SEM) of three independent experiments are shown. A two-sided Student's-t test was carried out and *p<0.0001 was obtained. The right-hand side panels (Western blot) illustrate one of the experiments. […]
The HE 293 cells, generally subjected to starvation (medium without serum) of a variable duration: 2 hours in the case of p38 and all night in the case of ERK, were stimulated and, after processing the lysate cells, the immunodetection of the phosphoproteins was carried out with the phospho-specific antibodies of the activation segments of both proteins. […] The quantification of the bands was carried out in a laser densitometer. In all the cases, the values obtained for the bands detected with the anti-phospho-protein antibody were normalized in relation to the total amount of p38 or ERK expressed in the cells. […]

MKK6 = assay: GST pull-down of purified MKK6; assay type: binding; settings: GST-p38 300 nM, MKK6 3 nM; vs T123A mutant or wild type
Protocol: (§3) Purified GST-p38 and its T123 mutants (300 nM) were incubated in the presence of purified MKK6 (3 nM) or His-tagged MAPKAPK2 ([…], 20 nM) in a pull down assay with GST as a negative control. Sedimented proteins were developed by Western Blot using anti-MKK6, anti-Histidine (for His-MK2) or anti-GST (for total amounts of GST-p38s) antibodies. In all panels, results are representative of three independent experiments performed in duplicate.
(§4) The proteins GST, GST-p38 wt, GST-p38T123A and GST-p38T123D were bacterially expressed and isolated using Gluthatione-Sepharose 4B (GE-Amersham) following standard procedures (Murga, C. et al. High affinity binding of beta-adrenergic receptor kinase to microsomal membranes. Modulation of the activity of bound kinase by heterotrimeric G protein activation. J Biol Chem 271, 985-994 (1996)). His-MAPKAPK2 was purified using Probond resin (Invitrogen) following manufacturer's indications. MKK6CAM was purchased from Upstate Biotech. The amount of proteins detailed in the legend to each figure were incubated in binding buffer (25 mM Tris pH 7.5, 0.25 M NaCl, 10 mM MgCl2, 5 mM NaF and 0.5% BSA) for 30 min at 30° C. with constant shaking. ATP (50 μM) was added for MAPKAPK2 pull downs. Precipitates were washed three times (10 ml) with the same buffer containing 0.5% Triton X100. Precipitated complexes were resolved by SDS-PAGE and developed by Western Blot.

MAPKAPK2 (MK2) = target: T1, MAPKAPK2 (MK2) (Homo sapiens, UniProt P49137); assay: GST pull-down of His-tagged MAPKAPK2; assay type: binding; settings: GST-p38 300 nM, His-MK2 20 nM; vs T123A mutant or wild type
T1 construct: made in house
T1 sequence (P49137 with tags, fused parts or gaps): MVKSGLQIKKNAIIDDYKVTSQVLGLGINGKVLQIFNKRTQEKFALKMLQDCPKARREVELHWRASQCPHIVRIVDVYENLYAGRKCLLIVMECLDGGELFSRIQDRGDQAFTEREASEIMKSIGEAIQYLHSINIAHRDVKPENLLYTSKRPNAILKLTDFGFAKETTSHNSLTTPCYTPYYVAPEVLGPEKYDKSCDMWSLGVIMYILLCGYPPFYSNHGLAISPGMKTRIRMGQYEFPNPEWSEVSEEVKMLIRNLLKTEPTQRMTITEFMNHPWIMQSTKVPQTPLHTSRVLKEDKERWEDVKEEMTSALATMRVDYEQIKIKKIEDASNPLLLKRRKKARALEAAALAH
Protocol: as §3, §4

B1: p38T123D: p38α mutant; aspartic acid mimics the constitutively phosphorylated form of threonine 123 (protein, UniProt P47811 2-360, looked up, variant T123D)
Mitogen-activated protein …: SQERPTFYRQELNKTIWEVPERYQNLSPVGSGAYGSVCAAFDTKTGHRVAVKKLSRPFQSIIHAKRTYRELRLLKHMKHENVIGLLDVFTPARSLEEFNDVYLVTHLMGADLNNIVKCQKLDDDHVQFLIYQILRGLKYIHSADIIHRDLKPSNLAVNEDCELKILDFGLARHTDDEMTGYVATRWYRAPEIMLNWMHYNQTVDIWSVGCIMAELLTGRTLFPGTDHIDQLKLILRLVGTPGAELLKKISSESARNYIQSLAQMPKMNFANVFIGANPLAVDLLEKMLVLDSDKRITAAQALAHAYFAQYHDPDDEPVADPYDQSFESRDLLIDEWKSLTYDEVISFVPPPLDQEEMES
modifications: GST or Flag tag in some forms
- phosphorylation by MKK6CAM (32P) (MKK6CAM [1]): much worse MKK6CAM substrate than the other two p38
- catalytic activity on GST-ATF2 (GST-ATF2): lacks the most minimum catalytic activity
- catalytic activity on MEF2A (GST-MEF2A): completely abolished
- activation by MKK6CAM versus Flag-p38WT (MKK6CAM [2]): considerable reduction
- ability to associate to MKK6 (MKK6): severely impaired
- ability to associate to MK2 (MAPKAPK2 (MK2)): severely impaired
